Measurements reported in US20040241754A1, “Modulating neuronal plasticity” (The Salk Institute for Biological Studies, priority 2003, published 2004).
Entries after “also recorded” stand apart in the source; their conditions may differ. Square brackets hold non-standard residues; d marks the D form. Ends that are not written are not given here. pS = N[C@@H](COP(=O)(O)O)C(=O)O

Legend:
[1] = system: mossy fiber synapses of hippocampal CA3 pyramidal neurons; assay: Mossy fiber LTP, whole-cell patch clamp in hippocampal slices; assay type: cell-based, mice; conditions: for LTP (potentiation of the EPSC after tetanic stimulation): peptide 50 μM in patch electrode (postsynaptic), 25 to 30 minutes after tetanic stimulation; for LTP PPR (paired pulse ratio after LTP induction) / control PPR (paired pulse ratio before LTP induction): 40 ms interval; for effect on tetanus induced LTP: peptide in patch electrode (postsynaptic); for LTP (potentiation of EPSCs after tetanic stimulation): bath application 5 μg/ml
Procedure: The role of the GluR2 subunit in LTP at mossy fiber terminals was evaluated in whole cell patch clamp experiments using hippocampal CA3 pyramidal neurons. Briefly, transverse hippocampal slices (350 μm) were made from P12-18 mice (strain 129SvEv) as previously described (Contractor et al., Neuron 29, 209-16. (2001)). Slices were transferred to a recording chamber, and whole-cell patch clamp recordings made from visually identified pyramidal cells in the CA3 region of the hippocampus. The recording electrode (i.e., patch electrode) is filled with an “internal” solution described below. A seal between the glass of the electrode and the membrane of the cell is made. The seal is then “broken through” by pushing the electrode through the membrane to gain low resistance access to the cell interior and enable voltage clamping of the cell membrane. This also allows dialysis of the cell with test reagents such as peptides and antibodies. A stimulating electrode is attached to a current source and allows current to stimulate action potentials while a reference electrode is placed in the recording bath. The composition of the internal solution was: 95 mM CsF, 25 mM CsCl, 10 mM Cs-HEPES, 10 mM Cs-EGTA, 2 mM NaCl, 2 mM Mg-ATP, 10 mM QX-314, 5 mM TEA-Cl, 5 mM 4-AP, pH adjusted to 7.3 with CsOH.
Peptides were added directly to the internal solution on the day of the experiment from frozen stocks in protease inhibitors made up in phosphate buffered saline (PBS). To avoid leakage of peptides or antibodies into the extracellular space, pipette tips were filled with normal internal solution and then the pipette was backfilled with peptide/antibody containing internal fluid. The final concentration of peptides was 50 μM in all experiments. The final concentration of protease inhibitors were: bestatin 2 μg/ml, leupeptin 25 ng/ml, pepstatin 35 ng/ml, aprotinin 100 ng/ml.
In control experiments where peptides were not included, internal solutions were made up in exactly the same way with protease inhibitors in PBS but lacking any added peptide. Antibodies were made up in PBS stock and added directly to the internal solution at a final concentration of 20 μg/ml. The pH and osmolarity of all internal solutions were checked before use. Series resistances (Rs) were generally <10M and were continuously monitored throughout the duration of the experiment. […] Experiments using mutant mice were performed with heterozygous breedings blind to the genotype of the animal.
Mossy fiber EPSCs were evoked with a monopolar glass electrode positioned in the stratum lucidum. EPSCs were evaluated using a 40 ms interval between recordings. All recordings were made in the continuous presence of bicuculline (10 μM), picrotoxin (50 μM) and the NMDA receptor antagonist D-AP5 [D(-)-2-Amino-5-phosphonopentanoic acid; 50 μM]. The group II mGluR agonist, LCCG-1 (10 μM), which selectively depresses mossy fiber transmission, was applied at the end of each experiment. LTP was induced by tetanic stimulation comprising three 1 s stimulations (100 Hz) with a 10 s interval. Data are presented as mean±SEM. Parameters were compared using the Student's unpaired t-test where not specified, and the K-S test, p<0.05 was considered significant.
Cumulative probability is determined by ranking the EPSC data set from the highest to the lowest value from 20 to 30 minutes post tetanization. Each point is graphed with its corresponding percentile. […] The lowest LTP value was about 40% signified by the lowest point on the 1 st graph (open circles) and the largest LTP was about 160%.

GRIP PDZ4-6 = target: T1, GRIP PDZ4-6 (Rattus norvegicus, UniProt P97879); assay: Competitive binding of 35S-EphB2 to His-GRIP-PDZ4-6; conditions: concentrations of up to 10 μM peptide; listed as GluR2ctPO4
T1 construct: corresponding to GRIP1 (amino acid 448-792); made in house; host or cells: E. coli BL21
T1 sequence (P97879 448-792): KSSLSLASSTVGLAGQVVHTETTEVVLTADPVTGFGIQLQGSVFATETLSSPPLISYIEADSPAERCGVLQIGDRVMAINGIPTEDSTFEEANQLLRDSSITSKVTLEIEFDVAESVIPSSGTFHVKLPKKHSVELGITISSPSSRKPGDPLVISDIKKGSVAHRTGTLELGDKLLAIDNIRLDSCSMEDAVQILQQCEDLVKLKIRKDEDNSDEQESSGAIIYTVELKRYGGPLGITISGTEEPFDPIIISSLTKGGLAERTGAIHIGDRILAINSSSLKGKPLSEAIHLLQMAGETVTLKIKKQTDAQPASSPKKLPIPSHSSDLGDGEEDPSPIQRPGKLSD
Procedure: A competitive binding assay was prepared to determine if the LTP inhibitory effects of the GluR2ct peptide were mediated through disruption of binding between Eph receptors and PDZ domain 6 of GRIP (Torres et al., Neuron 21, 1453-63. (1998)) as opposed to disruption of binding between the GluR2 subunit and the GluR2-binding PDZ 4 and 5 domains of GRIP (Dong et al., Nature 386, 279-84. (1997)). For this purpose, a binding assay was established between GRIP PDZ domain fragments (His-GRIP-PDZ4-6) and an EphB2 carboxy terminal fusion protein labeled with ^35S-methionine (^35S-EphB2).
Briefly, the carboxy terminal region of EphB2 corresponding to mouse EphB2 receptor (amino acid 930-993) was generated by PCR from mouse brain library and subcloned into pGEX2TK (Pharmacia). The GRIP(PDZ4-6) construct, corresponding to GRIP1 (amino acid 448-792) was obtained by PCR from an adult rat hippocampal library and subcloned into pRSET vector. E coli (strain BL21) were transformed with His-GRIP(PDZ4-6) and GST-EphB2 and protein production induced with IPTG. GST-EphB2 protein was purified on glutathionine beads and ^35S-EphB2 cleaved from GST with thrombin (1 U/μg). GRIP(PDZ4-6) protein was purified on Ni-NTA agarose, and eluted with imadazole. ^35S-EphB2 (50 nM) was incubated with (15 μg) of His-GRIP(PDZ4-6) protein in PBS buffer with protease inhibitors for 2 hrs at 22° C. in the absence or presence of peptides. ^35S-EphB2 binding to His-GRIP(PDZ4-6) was determined after a 45 min incubation with Ni-NTA agarose and vacuum filtration onto Whatman GFB filter circles (pretreated with 3% BSA). Filters were washed with ice-cold PBS buffer, allowed to equilibrate overnight in ECOLUME scintillation cocktail (ICN pharmaceuticals, Irvine Calif.), and specific counts measured in a scintillation counter. Non-specific binding was defined as the residual binding measured in the absence of His-GRIP(PDZ4-6).

[2] = system: mossy fiber synapses of hippocampal CA3 pyramidal neurons; assay: Forskolin-mediated potentiation of mossy fiber EPSCs; assay type: cell-based, mice; conditions: for forskolin potentiation of mossy fiber EPSCs after pre-application of Fc fusion protein: Fc fusion protein bath applied before forskolin; for effect on forskolin enhancement / mossy fiber transmission: bath application
[3] = target: presynaptic ephrin-B ligands; assay: cell-based or functional assay
[4] = peptide 50 μM in patch electrode
[5] = Fc fusion protein, bath application

## N[C@H](C(=O)O)[C@H]1C[C@@H]1C(=O)O [LCCG-1, (2S,1′S,2′S)-2-(carboxycyclopropyl)glycine, reference compound]
[1]; applied at the end of each experiment, 10 μM
  effect on mossy fiber EPSC: caused inhibition of the EPSC

## R2ctPO4: phosphorylated GluR2/3 peptide; same as SEQ ID NO: 1 except the serine is phosphorylated (NVYGIE[pS]VKI) [reference compound]
[1]
  LTP (potentiation of the EPSC after tetanic stimulation): 210±19%
  effect on tetanus induced LTP: little effect on induction of LTP
[1]; [4]
  LTP PPR (paired pulse ratio after LTP induction): 2.5±0.16
  control PPR (paired pulse ratio before LTP induction): 3.0±0.18
[1]; listed as GluR2ctPO4
  effect on tetanus induced LTP: do not inhibit LTP
GRIP PDZ4-6
  displacement of labeled EphB2 from GRIP PDZ4-6: unable to displace binding; also recorded: do not inhibit binding of EphB2 to GRIP

## LHLHGTGIQV [EphA7 peptide, reference compound]
[1]
  LTP (potentiation of the EPSC after tetanic stimulation): 250±46%
[1]; [4]
  LTP PPR (paired pulse ratio after LTP induction): 2.3±0.22
  control PPR (paired pulse ratio before LTP induction): 2.8±0.15
[1]; peptide 50 μM in patch electrode, immediately following tetanic stimulation
  PTP (post-tetanic potentiation): 990±180%
[1]; peptide in patch electrode
  paired pulse ratio after LTP induction versus pretetanic: significantly reduced relative to pretetanic recording

## C=C[C@@]1(C)CC(=O)[C@]2(O)[C@@]3(C)[C@@H](O)CCC(C)(C)[C@@H]3[C@H](O)[C@H](OC(C)=O)[C@@]2(C)O1 [forskolin, reference compound]
[2]; bath application of forskolin alone, 20-30 minutes after application
  potentiation of mossy fiber EPSCs by forskolin: 275±38%

B1: ephrin-B1-Fc: mouse ephrin (Met 1 to Ser 229), a linker, Human gamma heavy chain (Pro 100 to Lys 330) and (His)5 (protein)
chain (part 1 of 2): ATPLAKNLEPVSWSSLNPKFLSGKGLVIYPKIGDKLDIICPRAEAGRPYEYYKLYLVRPEQAAACSTVLDPNVLVTCNKPHQEIRFTIKFQEFSPNYMGLEFKKYHDYYITSTSNGSLEGLENREGGVCRTRTMKIVMKVGQDPNAVTPEQLTTSRPSKESDNTVKTATQAPGRGSQGDSDGKHETVNQEEKSGPGAGGGGSGDSIEGRMD
chain (part 2 of 2): HHHHH
modifications: left off: a dimerising Fc or GST
[2]
  forskolin potentiation of mossy fiber EPSCs after pre-application of Fc fusion protein: 219±15%
  effect on forskolin enhancement / mossy fiber transmission: does not affect Forskolin enhancement
[1]; [5]
  PTP (post-tetanic potentiation): 430±100%
  effect on LTP induction: significantly impair LTP induction
  effect on basal synaptic transmission / baseline EPSC amplitudes: did not alter the baseline EPSC amplitudes; also recorded: does not affect basal transmission
  effect on post-tetanic potentiation / short-term plasticity: significantly impaired
  paired pulse ratio, effect: no significant difference in PPR
[1]; Fc fusion protein
  LTP (potentiation of EPSCs after tetanic stimulation): 139±12%

B2: EphB2-Fc fusion protein (Fc fusion, mouse, not shown: a dimerising Fc or GST)
chain (part 1 of 2): VEETLMDSTTATAELGWMVHPPSGWEEVSGYDENMNTIRTYQVCNVFESSQNNWLRTKFIRRRGAHRIHVEMKFSVRDCSSIPSVPGSCKETFNLYYYEADFDLATKTFPNWMENPWVKVDTIAADESFSQVDLGGRVMKINTEVRSFGPVSRNGFYLAFQDYGGCMSLIAVRVFYRKCPRIIQNGAIFQETLSGAESTSLVAARGSCIANAEEVDVPIKLYCNGDGEWLVPIGRCMCKAGFEAVENGTVCRGCPSGTFKANQGDEACTHCPINSRTTSEGATNCVCRNGYYRADLDPLDMPCTTIPSAPQAVISSVNETSLMLEWTPPRDSGGREDLVYNIICKSCGSGRGACTRCGDNVQYAPRQLGLTEPRIYISDLLAHTQYTFEIQAVNGVTDQSPFSPQFASVNITTNQAAPSAVSIMHQVSRTVDSITLSWSQPDQPNGVILDYELQYYEKELSEYNATAIKSPTNTVTVQGLKAGAIYVFQVRARTVAGYGRYSGKMYFQTMTEAEYQTSIKEKLPLIVGDIEGRMD
chain (part 2 of 2): HHHHH
[3]
  LTP after tetanic stimulation in the presence of EphB2-Fc: 134%
  basal EPSC amplitude during bath application (5 µg/ml): 145%
  forskolin potentiation of mossy fiber EPSCs 30 mins after washout, after EphB2-Fc: 118%
  post-tetanic potentiation: 420%
  potentiation of baseline EPSC amplitudes on bath application: 148%

B3: EphB2-Fc: mouse EphB2 (Met 1 to Lys 546), a linker, Human gamma heavy chain (Pro 100 to Lys 330) and (His)5 (protein)
chain (part 1 of 2): VEETLMDSTTATAELGWMVHPPSGWEEVSGYDENMNTIRTYQVCNVFESSQNNWLRTKFIRRRGAHRIHVEMKFSVRDCSSIPSVPGSCKETFNLYYYEADFDLATKTFPNWMENPWVKVDTIAADESFSQVDLGGRVMKINTEVRSFGPVSRNGFYLAFQDYGGCMSLIAVRVFYRKCPRIIQNGAIFQETLSGAESTSLVAARGSCIANAEEVDVPIKLYCNGDGEWLVPIGRCMCKAGFEAVENGTVCRGCPSGTFKANQGDEACTHCPINSRTTSEGATNCVCRNGYYRADLDPLDMPCTTIPSAPQAVISSVNETSLMLEWTPPRDSGGREDLVYNIICKSCGSGRGACTRCGDNVQYAPRQLGLTEPRIYISDLLAHTQYTFEIQAVNGVTDQSPFSPQFASVNITTNQAAPSAVSIMHQVSRTVDSITLSWSQPDQPNGVILDYELQYYEKELSEYNATAIKSPTNTVTVQGLKAGAIYVFQVRARTVAGYGRYSGKMYFQTMTEAEYQTSIKEKLPLIVGDIEGRMD
chain (part 2 of 2): HHHHH
modifications: left off: a dimerising Fc or GST
[2]
  forskolin potentiation of mossy fiber EPSCs after pre-application of Fc fusion protein: 118±10%
  effect on forskolin enhancement / mossy fiber transmission: inhibits subsequent forskolin effects
[2]; bath applied before forskolin
  potentiation of baseline amplitudes: 148±19%
[1]; [5]
  LTP PPR: 2.2 ±0.2
  PTP (post-tetanic potentiation): 420±85%
  control PPR: 2.5±0.3
  effect on LTP induction: inhibits subsequent tetanus induced LTP
  paired pulse ratio, effect: small, non-significant reduction in the baseline PPR; also recorded: not significantly reduced
[1]; Fc fusion protein
  LTP (potentiation of EPSCs after tetanic stimulation): 134±13%
[1]; bath application 5 μg/ml for twenty minutes during baseline recording
  increase in the basal EPSC amplitude: 145±13%
